Data: the DeepSol protein solubility set

assay: soluble on expression in E. coli; label from the status in PepcDB or PDB records

Soluble on expression in E. coli, not soluble:
MGSDKIHHHHHHMLKIELLESFIAVAECGNMSKAADKVCRTQSTLSLQIKKLEEVVGQSLLLRDNKGTTLTESGSTLLNYAYKMMQLNSQAIHDLKDCQNREIIRLGVPTDYIKFYLNSCLLEFIREFTCIELVIDTDVSGNLFKRLQQGEFDLIVATHWQAPVNGELLFSRRFHWAAAKNGQAHKRSTVPMALYPENCPIRAQVFANHQLSMRPINVLLSTPSPQALCMAVENDLAIAPIAEFRTNEHMQILDPHEHGLPPLPIFNESLYLNPETQTEATMQLITLIKANVEHLSDTID
MGSDKIHHHHHHMLKINMFSAADSVKGQGVGSAYNELMNLLKTHLNQEFDVSVNRYRRVDITHYHTINFSYYLSTFLPHRGRKIGYVHFLPETLEGSLKIPQPFRSIFYAYVLAFYRRMDHIVVVNPTFIPKLVAAGIPAERVTYIPNFVSRDEFYPVTVEQKQALRQQYGYATDRFTILGIGQIQERKGLFDFIKLARNNPSYQFIWAGGFSFGRMTDGYAELKKVVDNPPANLSFPGIVDRDKLVDYYNLADLFLLPSFNELFPMSVLEAFSTGTPVLLRDLDLYQAIIAGDYQPAKDYAEMDEQLHRLAADPQALAHWRQQSLAAADRYSEEHLTQIWREFYTQQAKER
MGSDKIHHHHHHMLKINQVKLTQVNLAQINTAKVNTIPAKVVHKMMKKVVITTLIAMNLMQVSFAADVVEKNETKVVAKPVKVAPVLNMPMAAKTELNATLYSRSHIPITASLNARVDYLVEPGDFVAQGDKLAGMDLLPIQLRQAEQKAQISRARINVAYIKNELSRLQALSKTQAVSQFKLDQMRSEHDLAAADLEIAQLKLAQINEQLSRAIITAPFAGIITERLIRVGSEVNRGDILLRLLDTEHLEARLYIPIKYLAFINKGDKLSMSASDQKTLAAVTAKIPRADPRSQTFEVRLNIPKAFNKHWAAGQLVSVSVPTQKATASLTVPRDALILRKSGSYVIKVNADNTVSRLAVVVGKGNKERVAITGSLKHGDNVAIRGAERLADGDKVVIQ
MGSDKIHHHHHHMLKSCPMNPRLDALHPYPFEKLRALLADAGKPTHDLPPINLSIGEPKHAAPACVGQAIAANLAGLSVYPSTKGEPALRQAISQWLSRRYSIPAPDPESEVLPVLGSREALFAFAQTVIDPSAGALVVCPNPFYQIYEGAALLAGATPYYVNADPARDFGCDWARVPDEVWRRTQLVFVCSPGNPAGNVMSLEEWRTLFELSDRHGFVIAADECYSEIYLDEDNPPLGSLQAARRLGRDRYTNLVAFSSLSKRSNVPGMRSGFVAGDAALLARFLLYRTYHGSAMSPVVSAASIAAWSDETHVQENRRQYRAKFEAVLPILQNVLDVRAPQASFYLWAGTPGSDTAFARELYGRTGVTVLPGSLLAREAHNANPGQGRIRIALVAPLDQCVQAAERIAHFARTSI
MGSDKIHHHHHHMLLFQDLRKDIYEIVSKRFRISENDVYLDDTGHSDITIRVFRILKSPDGGENAVMEIVRSISEKDYVEKALSEGGYINVWIKRTYMLREVLESIEKSGTYPDVFQEAERVSVEHTSANPTGPLHIGRARNSIIGDSIYRILSRYGYRTVRQYFVNDSGKQMISLYTAYIKYGGPITIENLLENYQKIYREMEKDQSIEKEIEKNIERYENADPEVFGTLRKIAGVMLDGIASTLKRIGIEFDEFDWESDLLLNGSVRKAIDMLETKEEDSARYIEISGKKVFLTRKDGTTLYFARDIAYHLFKAENSEWIIDVLGEDHKDHAKSLNHVLKEMLKLENRVSFMYYSFITLETGKMSTRRGNIVTLQDLVDRTYDEALKIVNEKRPDLSEEERKKIAEVIASSAVRYSIIRVSAPKPITFRWEEALNFESNSAPFIMYSHARAASILDKAPEPEQSYGMDMPKEEADLVKAMYVYPYYLKDAAQDLKPDLIAAYLISLVQKFNDFYGACRVIGTDPLTYARRIRIVKAYKQILSDAGDLIGIKMLDQM
MGSDKIHHHHHHMLLTPDDLKACEVELARRSLADFARMAWPVLEPATPLKWGWALDAICEHLEAVSRGESKRLLMNVPPGSMKSLLTGVIWPAYEWGPMDHAEMRFLGTAHKQDLAVRDNLKCRRLIQSQWYQERWPVVLTSDQNAKTKFENARTGFREAMAFESMTGSRGDRVILDDPHSVDDANSAAKLASGVTTFREALPSRVNNDQSAIVIVMQRLNEADVSAVAIDLGYDHLCIPMRYEPGRSKWVYGSGDPRKEEGELMFPERFPEEQVSELEKTMGSYAVAGQLQQRPAPRGGGIIKTAWFRSYRELPALEWRQIHADTAQKTGEENDYSVFQCWGRTTTGQAVLIDQIRGKWEAPDLLTQARAFWLKHKSIPGPVLRAMKVEDKVSGTGLIQTLRREGVAVIPVQRNKDKISRAYDAAAFIESGNVLLPEWADWLDGFTNEAATFPSGAHDDQLDPMFDAIHDVQFGMTVSAAVTRPIPRSVTAFNKR
MGSDKIHHHHHHMLMSVTTENAPVQGQTTLQENSAGEGVYASLFEKINLTPASCLGDINDFLDDAALSEAPAAERLTAAMQVFMERIRQSGQRVEKLDKTLIDHHIAELDFQISRQLDAVMHHQEFQQVESLWRGLKQLVDNTDYRQNVKTEILDVAKDDLRQDFEDAPELIQSGLYWHTYTAEYDTPGGEPIGSVISAYEFDASPQDVALLRNISRVSAAAHMPFIGAVGPAFFLKETMEEVAAIKDIGNYFDRAEYIRWKAFRETDDARYIGLVMPRVLGRLPYGPDTVPVRSFNYVEQVKGPDHEKYLWTSAAFSFASNMVKSFVNNGWCVQIRGPQAGGAVKDLPIHLYDLGTGNQVKIPSEVMIPETREFEFASLGFIPLSYYKNRDYACFFSANSAQKPALYDTADATANSRINARLPYIFLLSRIAHYLKMIQRENIGTTKDRRLLELELNTWVRSLVTEMTDPGDELQASHPLRDASVVVEDIEDNPGFFRVKLYAVPHFQVEGMDVNLSLVSQMPKAKA
MGSDKIHHHHHHMLNDRARILLKTLVERYISEGEPVGSRTLSKHAGLDLSPASIRNIMSDLEEMGFVASPHTSAGRVPTPRGYRFFVDTLLTVRPLDQVSVNHLENSLAASDPQRLMTAASTLLSDLSQFAGLVMTPRRNPAFRQIEFLTLSDKRVLLIIVTMEGEVENRVIVTEQSYSAAALTEAANYFNQNFAGHSFDHVRSKLRDELGRMRDDITRLMAAAVDAGTQALDASQDNVVVSGSRKLLDVEELSSNMRSLRRLFDAFEKKTGLLQLLDQSRSAAGVQIFIGGESELLPLDECSLVTAPYSVDGVVVGTLGVVGPTRMAYERVVPIVDVTAKILSSALSQHK
MGSDKIHHHHHHMLNVSIVIPAWNEQERINDCLLNATRQTVMPHEVIVVDNRSTDSTVAVVEQFMKDHPEAPVKLLHQDDEQGLIPTRDYGLNHATGDILGRFDADCMIRPDWVEVVSGIFTEDPDAMGATGPVMYYDLPSRHFGLRGDNSTRKRIYRADDGQPLLFGSNMALRATAWREIADEVCQDKADVMHEDIDISLHLLGKDLKTVYCPRMIAGISARRMDTSPASFLNYMRRFKNTFNAHPQHYRKHKPEILITALYPVMHLLYPVWQKVLNTADINPAEAAWINEQMELAEQEGHELYDDTPTDEEWSEKHEE
MGSDKIHHHHHHMLSALWVSKTGLSAQDMNLTTISNNLANVSTTGFKRDRAEFQDLLYQIRRQPGGQSTQDSELPSGLQLGTGVRVVGTQKIFTPGSLQTTEQPLDMAVNGRGFFQVLLPDGTVSYTRDGSFHLNSDGQIVTSNGFALEPAIVVPNETQTFTVGQDGTVSVTTTGNAQPQVIGNIQTADFINPAGLQAIGNNLFLETGSSGAPQVGTPGLNGLGTVAQNTLENSNVNVVEELVNMITTQRAYEMNSKVISTADQMLSFVTQNL
MGSDKIHHHHHHMLSHEDNETLVRVGPGTPTGQFMRLYWLPFLPSSDLTVDGQPQRVRLLGEDLIAFRDSEGRVGLVDHVCPHRGAPLVFGRNENCGLRCVYHGWQFGVDGQVIDTPAEPAESRLKDKVRIRSYPCRERNGIVWAYMGEADANALPPLPNLEWNMVPLENVHFSFRVQECNWLQAVEGEIDSAHAPILHGRIDSQGAINEWTAKRDLRPVFECQRREFGISIASRRVLDDSHHYWRVNQFLFPFYTLVPPQSKYPELSGHAWVPVDDENTLCLMFSYTPAAPLYEKTRKLFEDGHAGRETGHASAHAFAPRPVTQPYAKYWTRFNLESAFQFDYDAQTKTWFSGLPGLWVQDAACQSGVAPIYDRRKENLGISDTGVAMTRRLLLENVRKLASERVSPVRVDDPDLWMVRAVSLTLPAGAPWQSDGAEHMRARLGADFGYTP
MGSDKIHHHHHHMLSKMEINKLAMKESMTLLACPICGGEFSFSEPNSFICKNHHGFDIAKPGYLHLLKQVHKTKYDQALFESRKKVIASGFFEKLIERVTEIIAETKKEEVVIYDAGSGEGSHLARVVKNLQEKGRHVQAIGLDIAKEGVKQAARDYPGIVWTVADLANCPTQTETADVILNILSPSNYEEFKRLLKTDGFLLKVVPEANYLRELREFIYVDEKSSYSNESVTSRLAEKLTVEYVERVTYKAPIANELFADFLEMTPLGWHIDKDKKSELLINPPKELTVDLKIIIANRAHLL
MGSDKIHHHHHHMLSRTADNLYWMTRYVERAENMARILDVSYRMSQLPRNGTDAAVEWEPALIISGQKPDFETRFEEITAGNVIAYMALDPENPSSIVSTLHAARENARAERFVLPQEMFEGLNATWLELQSLSYARLVDWGFREFFEWVKERSHQFLGTTIGTMLQTDGFHFTRLGTFIERADNTARLLDVKYHVLMPDENRLDEAVDYYQWGAVLRAMSALKAYRMVYRDTIKPRQVIDLLTLKREFPRSLHLCYENLHDLLEHLAPGAECTRLTGEMHAKLRYGRIQDITRRGLHRFLTDFITHNAAVSAEIGRTFHLVADIGVQTPVKEAKEAKRADDGGEAEEAGSVQQQRQ
MGSDKIHHHHHHMLSSAEKVKGQGVASAYRELVNLLEERYKNEIDMKINSFEKSDITHYHTVDFRFFLSTFFKKKRGVRVGYVHFLPETMEGSLKLPWIARVVFYKYLIGFYKRMDEIVVVNPSFIPKLTAYNIPAEKIHYIPNFVSKKSFFPISKGEKELARAKYEIPADKFTVIGIGQVQHRKGVLDFIEVAKQLPDVQFVWAGGFSFGKITSGYEELKKIYDNPPSNVKFIGIVDRSEMNSCINMADVFFMPSYNELFPMAILEAMSCDVPILLRNLDLYEEILDGYYVKEVDNPGFIRAIERLENDTNYYNEMLQASKRGAAYYSEDRLAEIWLDFYQGLLTKE
MGSDKIHHHHHHMLSVEKLACTHGDSHYLFDEVTFSLNPGERILISGYSGCGKSTLALLLSGLKESGKGQVLLNGSLIEPSDVGFLFQNPDLQFCMDTVAHELYFILENLQIEPEQMQDRSEFVLAQVGLKGFQNRLIYTLSQGEKQRLALATIFLKSPKLIILDEAFANLDQESASQLLQLVLNYQANNQSMLIVIDHLITYYQDIMDHYFWLEKRLTRVNFDYMLNRLNVFELEKKSHNTGDKLLSIKDFQVKLSKNKFISYLDFDLASGERLCLDGPSGVGKSSLFMGLLGLYRTKGKKQFTHRKQIPISFLFQNPLDQFIFSTVYDEIFQVCKDSNKARDILETINLWDKKQFSPFQLSQGQQRRLAIGSILASDSKLLLLDEPTYGQDAYHANMITTLLLSYCHKNHCGVIFTSHDPHLKECFATRFLEVSSCSI
